According to US6790633:

Target: rat brain farnesyl:protein transferase (rat) (UniProt Q04631)
Experiment: cell-based or functional assay

Substance	fold decline in affinity for the enzyme	fold decrease in affinity for the enzyme against CVIM, as estimated by the concentration required for 50% inhibition	concentration required for inhibition	further results
CVIM with lysine at the A2 position (peptide)	> 50 fold	> 30 fold	–	–
CVIM with glycine at the A2 position (peptide)	–	–	–	concentration giving 50% inhibition: 8 µM
CVIM with glutamic acid at the X position (peptide)	–	–	> 40 µM	–
CVIM with glycine at the X position (peptide)	–	–	> 40 µM	–

More lines, main results first:

fold decline in affinity for the enzyme	fold decrease in affinity for the enzyme against CVIM, as estimated by the concentration required for 50% inhibition	concentration required for inhibition	Substance	further results
> 50 fold	–	–	CVIM with glutamic acid at the A2 position (peptide)	–
–	> 30 fold	> 40 µM	CVIM with lysine at the X position (peptide)	–
